Assay results: PMC7367873, “Dissecting the sequence determinants for dephosphorylation by the catalytic subunits of phosphatases PP1 and PP2A” (Nature Communications, 2020)

Tests used:
GFP-14-3-3β = GFP-14-3-3β co-IP with LC-MS/MS, untreated GFP-14-3-3β versus GFP control (14-3-3 interactome); assay type: binding, human
[1] = tested on: GFP-14-3-3β and its binding proteins; assay: GFP-14-3-3β co-IP with LC-MS/MS label-free quantification, untreated versus PP1c-treated; set-up: species or system human
[2] = untreated vs GFP, LFQ intensities, replicates 1-3
[3] = PP1 vs untreated, LFQ intensities, replicates 1-3
[4] = log2 difference, pairwise comparison untreated vs GFP, label-free quantification, 3 replicates each
[5] = log2 difference, pairwise comparison PP1 vs untreated, label-free quantification, 3 replicates each

Difference (log2), PP1 vs untreated [1, 3] [log2] | Difference (log2), PP1 vs untreated [1, 5] | Molecule | Difference (log2), untreated vs GFP (GFP-14-3-3β; [2]) [log2] | Difference (log2), untreated vs GFP (GFP-14-3-3β; [4])
-1.1218 | – | EWSR1 (protein, UniProt Q01844 1-656, looked up) RNA-binding protein EWS: MASTDYSTYSQAAAQQGYSAYTAQPTQGYAQTTQAYGQQSYGTYGQPTDVSYTQAQTTATYGQTAYATSYGQPPTGYTTPTAPQAYSQPVQGYGTGAYDTTTATVTTTQASYAAQSAYGTQPAYPAYGQQPAATAPTRPQDGNKPTETSQPQSSTGGYNQPSLGYGQSNYSYPQVPGSYPMQPVTAPPSYPPTSYSSTQPTSYDQSSYSQQNTYGQPSSYGQQSSYGQQSSYGQQPPTSYPPQTGSYSQAPSQYSQQSSSYGQQSSFRQDHPSSMGVYGQESGGFSGPGENRSMSGPDNRGRGRGGFDRGGMSRGGRGGGRGGMGSAGERGGFNKPGGPMDEGPDLDLGPPVDPDEDSDNSAIYVQGLNDSVTLDDLADFFKQCGVVKMNKRTGQPMIHIYLDKETGKPKGDATVSYEDPPTAKAAVEWFDGKDFQGSKLKVSLARKKPPMNSMRGGLPPREGRGMPPPLRGGPGGPGGPGGPMGRMGGRGGDRGGFPPRGPRGSRGNPSGGGNVQHRAGDWQCPNPGCGNQNFAWRTECNQCKAPKPEGFLPPPFPPPGGDRGRGGPGGMRGGRGGLMDRGGPGGMFRGGRGGDRGGFRGGRGMDRGGFGGGRRGGPGGPPGPLMEQMGGRRGGRGGPGKMDKGEHRQERRDRPY | 2.021 | –
– | 1.626 | ATP5A1 (protein, UniProt P25705 44-553, looked up) ATP synthase F(1) complex …: QKTGTAEMSSILEERILGADTSVDLEETGRVLSIGDGIARVHGLRNVQAEEMVEFSSGLKGMSLNLEPDNVGVVVFGNDKLIKEGDIVKRTGAIVDVPVGEELLGRVVDALGNAIDGKGPIGSKTRRRVGLKAPGIIPRISVREPMQTGIKAVDSLVPIGRGQRELIIGDRQTGKTSIAIDTIINQKRFNDGSDEKKKLYCIYVAIGQKRSTVAQLVKRLTDADAMKYTIVVSATASDAAPLQYLAPYSGCSMGEYFRDNGKHALIIYDDLSKQAVAYRQMSLLLRRPPGREAYPGDVFYLHSRLLERAAKMNDAFGGGSLTALPVIETQAGDVSAYIPTNVISITDGQIFLETELFYKGIRPAINVGLSVSRVGSAAQTRAMKQVAGTMKLELAQYREVAAFAQFGSDLDAATQQLLSRGVRLTELLKQGQYSPMAIEEQVAVIYAGVRGYLDKLEPSKITKFENAFLSHVVSQHQALLGTIRADGKISEQSDAKLKEIVTNFLAGFEA | – | -0.3409
-1.071 | – | SAMD4B (protein, UniProt Q5PRF9 1-694, looked up) Protein Smaug homolog 2: MMFRDQVGILAGWFKGWNECEQTVALLSLLKRVTRTQARFLQLCLEHSLADCNDIHLLESEANSAAIVSQWQQESKEKVVSLLLSHLPLLQPGNTEAKSEYMRLLQKVLAYSIESNAFIEESRQLLSYALIHPATTLEDRNALALWLSHLEERLASGFRSRPEPSYHSRQGSDEWGGPAELGPGEAGPGWQDKPPRENGHVPFHPSSSVPPAINSIGSNANTGLPCQIHPSPLKRSMSLIPTSPQVPGEWPSPEELGARAAFTTPDHAPLSPQSSVASSGSEQTEEQGSSRNTFQEDGSGMKDVPSWLKSLRLHKYAALFSQMSYEEMMTLTEQHLESQNVTKGARHKIALSIQKLRERQSVLKSLEKDVLEGGNLRNALQELQQIIITPIKAYSVLQATVAAATTTPTAKDGAPGEPPLPGAEPPLAHPGTDKGTEAKDPPAVENYPPPPAPAPTDGSEPAPAPVADGDIPSQFTRVMGKVCTQLLVSRPDEENITSYLQLIEKCLTHEAFTETQKKRLLSWKQQVLKLLRTFPRKAALEMQNYRQQKGWAFGSNSLPIAGSVGMGVARRTQRQFPMPPRALPPGRMGLLSPSGIGGVSPRHALTSPSLGGQGRQNLWFANPGGSNSMPSQSRSSVQRTHSLPVHSSPQAILMFPPDCPVPGPDLEINPTLESLCLSMTEHALGDGTDKTSTI | 4.238 | –
-1.031 | – | CORO1B (protein, UniProt Q9BR76 1-489, looked up) Coronin-1B: MSFRKVVRQSKFRHVFGQPVKNDQCYEDIRVSRVTWDSTFCAVNPKFLAVIVEASGGGAFLVLPLSKTGRIDKAYPTVCGHTGPVLDIDWCPHNDEVIASGSEDCTVMVWQIPENGLTSPLTEPVVVLEGHTKRVGIIAWHPTARNVLLSAGCDNVVLIWNVGTAEELYRLDSLHPDLIYNVSWNHNGSLFCSACKDKSVRIIDPRRGTLVAEREKAHEGARPMRAIFLADGKVFTTGFSRMSERQLALWDPENLEEPMALQELDSSNGALLPFYDPDTSVVYVCGKGDSSIRYFEITEEPPYIHFLNTFTSKEPQRGMGSMPKRGLEVSKCEIARFYKLHERKCEPIVMTVPRKSDLFQDDLYPDTAGPEAALEAEEWVSGRDADPILISLREAYVPSKQRDLKISRRNVLSDSRPAMAPGSSHLGAPASTTTAADATPSGSLARAGEAGKLEEVMQELRALRALVKEQGDRICRLEEQLGRMENGDA | 0.1576 | –
-1.158 | – | SERPINH1 (protein, UniProt P50454 19-418, looked up) Serpin H1: AEVKKPAAAAAPGTAEKLSPKAATLAERSAGLAFSLYQAMAKDQAVENILVSPVVVASSLGLVSLGGKATTASQAKAVLSAEQLRDEEVHAGLGELLRSLSNSTARNVTWKLGSRLYGPSSVSFADDFVRSSKQHYNCEHSKINFRDKRSALQSINEWAAQTTDGKLPEVTKDVERTDGALLVNAMFFKPHWDEKFHHKMVDNRGFMVTRSYTVGVMMMHRTGLYNYYDDEKEKLQIVEMPLAHKLSSLIILMPHHVEPLERLEKLLTKEQLKIWMGKMQKKAVAISLPKGVVEVTHDLQKHLAGLGLTEAIDKNKADLSRMSGKKDLYLASVFHATAFELDTDGNPFDQDIYGREELRSPKLFYADHPFIFLVRDTQSGSLLFIGRLVRPKGDKMRDEL | -0.8949 | –
– | 1.627 | EIF2A (protein, UniProt Q9BY44 1-585, looked up) Eukaryotic translation …: MAPSTPLLTVRGSEGLYMVNGPPHFTESTVFPRESGKNCKVCIFSKDGTLFAWGNGEKVNIISVTNKGLLHSFDLLKAVCLEFSPKNTVLATWQPYTTSKDGTAGIPNLQLYDVKTGTCLKSFIQKKMQNWCPSWSEDETLCARNVNNEVHFFENNNFNTIANKLHLQKINDFVLSPGPQPYKVAVYVPGSKGAPSFVRLYQYPNFAGPHAALANKSFFKADKVTMLWNKKATAVLVIASTDVDKTGASYYGEQTLHYIATNGESAVVQLPKNGPIYDVVWNSSSTEFCAVYGFMPAKATIFNLKCDPVFDFGTGPRNAAYYSPHGHILVLAGFGNLRGQMEVWDVKNYKLISKPVASDSTYFAWCPDGEHILTATCAPRLRVNNGYKIWHYTGSILHKYDVPSNAELWQVSWQPFLDGIFPAKTITYQAVPSEVPNEEPKVATAYRPPALRNKPITNSKLHEEEPPQNMKPQSGNDKPLSKTALKNQRKHEAKKAAKQEARSDKSPDLAPTPAPQSTPRNTVSQSISGDPEIDKKIKNLKKKLKAIEQLKEQAATGKQLEKNQLEKIQKETALLQELEDLELGI | – | -1.244
-1.121 | – | SF3B1 (protein, UniProt O75533 1-1304, looked up) Splicing factor 3B subunit 1: MAKIAKTHEDIEAQIREIQGKKAALDEAQGVGLDSTGYYDQEIYGGSDSRFAGYVTSIAATELEDDDDDYSSSTSLLGQKKPGYHAPVALLNDIPQSTEQYDPFAEHRPPKIADREDEYKKHRRTMIISPERLDPFADGGKTPDPKMNARTYMDVMREQHLTKEEREIRQQLAEKAKAGELKVVNGAAASQPPSKRKRRWDQTADQTPGATPKKLSSWDQAETPGHTPSLRWDETPGRAKGSETPGATPGSKIWDPTPSHTPAGAATPGRGDTPGHATPGHGGATSSARKNRWDETPKTERDTPGHGSGWAETPRTDRGGDSIGETPTPGASKRKSRWDETPASQMGGSTPVLTPGKTPIGTPAMNMATPTPGHIMSMTPEQLQAWRWEREIDERNRPLSDEELDAMFPEGYKVLPPPAGYVPIRTPARKLTATPTPLGGMTGFHMQTEDRTMKSVNDQPSGNLPFLKPDDIQYFDKLLVDVDESTLSPEEQKERKIMKLLLKIKNGTPPMRKAALRQITDKAREFGAGPLFNQILPLLMSPTLEDQERHLLVKVIDRILYKLDDLVRPYVHKILVVIEPLLIDEDYYARVEGREIISNLAKAAGLATMISTMRPDIDNMDEYVRNTTARAFAVVASALGIPSLLPFLKAVCKSKKSWQARHTGIKIVQQIAILMGCAILPHLRSLVEIIEHGLVDEQQKVRTISALAIAALAEAATPYGIESFDSVLKPLWKGIRQHRGKGLAAFLKAIGYLIPLMDAEYANYYTREVMLILIREFQSPDEEMKKIVLKVVKQCCGTDGVEANYIKTEILPPFFKHFWQHRMALDRRNYRQLVDTTVELANKVGAAEIISRIVDDLKDEAEQYRKMVMETIEKIMGNLGAADIDHKLEEQLIDGILYAFQEQTTEDSVMLNGFGTVVNALGKRVKPYLPQICGTVLWRLNNKSAKVRQQAADLISRTAVVMKTCQEEKLMGHLGVVLYEYLGEEYPEVLGSILGALKAIVNVIGMHKMTPPIKDLLPRLTPILKNRHEKVQENCIDLVGRIADRGAEYVSAREWMRICFELLELLKAHKKAIRRATVNTFGYIAKAIGPHDVLATLLNNLKVQERQNRVCTTVAIAIVAETCSPFTVLPALMNEYRVPELNVQNGVLKSLSFLFEYIGEMGKDYIYAVTPLLEDALMDRDLVHRQTASAVVQHMSLGVYGFGCEDSLNHLLNYVWPNVFETSPHVIQAVMGALEGLRVAIGPCRMLQYCLQGLFHPARKVRDVYWKIYNSIYIGSQDALIAHYPRIYNDDKNTYIRYELDYIL | 2.403 | –
-1.125 | – | RALGPS2 (protein, UniProt Q86X27 1-583, looked up) Ras-specific guanine …: MDLMNGQASSVNIAATASEKSSSSESLSDKGSELKKSFDAVVFDVLKVTPEEYAGQITLMDVPVFKAIQPDELSSCGWNKKEKYSSAPNAVAFTRRFNHVSFWVVREILHAQTLKIRAEVLSHYIKTAKKLYELNNLHALMAVVSGLQSAPIFRLTKTWALLSRKDKTTFEKLEYVMSKEDNYKRLRDYISSLKMTPCIPYLGIYLSDLTYIDSAYPSTGSILENEQRSNLMNNILRIISDLQQSCEYDIPMLPHVQKYLNSVQYIEELQKFVEDDNYKLSLKIEPGTSTPRSAASREDLVGPEVGASPQSGRKSVAAEGALLPQTPPSPRNLIPHGHRKCHSLGYNFIHKMNTAEFKSATFPNAGPRHLLDDSVMEPHAPSRGQAESSTLSSGISIGSSDGSELSEETSWPAFERNRLYHSLGPVTRVARNGYRSHMKASSSAESEDLAVHLYPGAVTIQGVLRRKTLLKEGKKPTVASWTKYWAALCGTQLFYYAAKSLKATERKHFKSTSNKNVSVIGWMVMMADDPEHPDLFLLTDSEKGNSYKFQAGNRMNAMLWFKHLSAACQSNKQQVPTNLMTFE | 6.032 | –
